Test results: patent US7169901 (Genentech, dated 2007)

Molecular target: rhVEGF165 (human, UniProt P15692 27-191, limits assumed)
Assay: cell-based or functional assay

rhVEGF165, sequence (P15692 other isoform, or with tags, fused parts or gaps limits assumed): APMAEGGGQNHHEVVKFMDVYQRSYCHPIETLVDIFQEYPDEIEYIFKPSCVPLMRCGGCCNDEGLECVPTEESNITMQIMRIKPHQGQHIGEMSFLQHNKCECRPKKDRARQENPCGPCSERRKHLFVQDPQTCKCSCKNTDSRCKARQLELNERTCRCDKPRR

B1: Y0313-1 (Fab, V domains shown)
VH: EVQLVESGGGLVQPGGSLRLSCAASGYDFTHYGMNWVRQAPGKGLEWVGWINTYTGEPTYAADFKRRFTFSLDTSKSTAYLQMNSLRAEDTAVYYCAKYPYYYGTSHWYFDVWGQGTL
VL: DIQLTQSPSSLSASVGDRVTITCRANEQLSNYLNWYQQKPGKAPKVLIYFTSSLHSGVPSRFSGSGSGTDFTLTISSLQPEDFATYYCQQYSTVPWTFGQGTKVEIKR
potency in inhibiting VEGF-induced HuVEC growth ([3H]-thymidine), relative to Y0192 Fab: 30 fold
